According to the DeepSol protein solubility set:

test: soluble on expression in E. coli; label from the status in PepcDB or PDB records

Question: For “MDTIQKRPRTRLSPEKRKEQLLDIAIEVFSQRGIGRGGHADIAEIAQVSVATVFNYFPTREDLVDDVLNKVENEFHQFINNSISLDLDVRSNLNTLLLNIIDSVQTGNKWIKVWFEWSTSTRDEVWPLFLSTHSNTNQVIKTMFEEGIERNEVCNDHTPENLTKMLHGICYSVFIQANRNSSSEEMEETANCFLNMLCIYK”, which “soluble on expression in E. coli” value is on record?
Answer: The value was “not soluble”.

Question: With “LGASWHRPDKCCLGYQKRPLPQVLLSSWYPTSQLCSKPGVIFLTKRGRQVCADKSKDWVKKLMQQLPVTAR” as the sequence, how does the “soluble on expression in E. coli” value read?
Answer: Its value is “soluble”.

Question: For “MLLAGLTSCQQKGYTITGTVDSTLNLDGNMVYIQLSQGNNLDSTTIRNGAFTFTGEHIDTAKLAYIVTASPEHNVVPIIFILEDGKISAKIGEYAAKGTPLNEENFKYSAKINELENSFKLKMEEIQADTARAAEETQAMLEKEYTAMLGEKSKITTELYQSHTNDALGARLLQNILYGEGSDSDVIAEARKKAGPIVLAHPNIVHLLAMIDNLADTQPGKMAKNFAGTDAEGNEVELFKYVGQGNYAVVDFWASWCGPCRREIPYIAEANAKFAEKGLQVVGIVVWDKMEDHLKAKEALNVVWPQIFDAKNVATDMYGIQGIPQVILFGPDGTIIERDLRGEKLIEKLSEIYNSNKK”, which “soluble on expression in E. coli” value is on record?
Answer: Its value is “not soluble”.

Question: Which “soluble on expression in E. coli” value does the source give for “MQDEESLMWVQFGGDDGKQVVAELAMRADKYAVRTRDNSSPVLTGFEGVPTYAYSPAWVIEGRFEPYAEPMDVPIGTANPLVDGVHRSVGEVVFRAPGVPHEIRLHAEEEKLGALNVTFHDETNGDTTDEWRKVFIPRPRPDGSVVIDFNRAINYPSAFTPYGTCPMPVRGNSVDVRVEAGEKLPQGLEHHHHHH” here?
Answer: Its value is “soluble”.

Question: For “MAMEKPVLWYIADPMCSWCWGFAPVIENIRQEYSAFLTVKIMPGGLRPGTNTPLLPEKRAQILHHWHSVHITTGQPFTFENALPEGFIYDTEPACRGVVSVSLIEPEKVFPFFAAIQRAFYVGQEDVAQLAILKKLAVDLGIPESRFTPVFQSDEAKQRTLAGFQRVAQWGISGFPALVVESGTDRYLITTGYRPIEALRQLLDTWLQQHGV”, which “soluble on expression in E. coli” value is on record?
Answer: The value was “soluble”.

Question: Which “soluble on expression in E. coli” value does the source give for “MSVDLAHIRQVRAEADCLFNNDEVEAAIGRVAEAINRDLGETNPVVFCVMNGGLIFSGKLLPLLDFPLELSYLHATRYRNETSGGELFWKAKPEISFIDRDVLIIDDILDEGHTLSAIIDFCKHAGARAVHTAVLVDKEHERKARPDLKASFTGLYCADRYVFGYGMDYKGYWRNAAGIFAVKGL” here?
Answer: Its value is “not soluble”.

Question: Which “soluble on expression in E. coli” value does the source give for “MTVAVIGAHGGIGRRLLPRLNEAGHDPIGVVRSEDQFAAIRDRGAEPRLGDLEGEVASALDGADAVVFTAGAGGSTGWDKTILVDLWGAERAVHACEEKEIDRFVMVSSRGAGDPESRQGPIKPYIVAKHVADRTLQRSSLDETILRPTRLTDAEGTGRVAAYVDTDPDAGDPIPRADVAQAVVQCLADDNTVGHAITLYGGDTPIGEALRPSGLEHHHHHH” here?
Answer: The value was “not soluble”.

Question: For “GSDEKRLHFGNGHLKLPGLRTYVDPHTYEDPTQTVHEFAKELDATNISIDKVVGAGEFGEVCSGRLKLPSKKEISVAIKTLKVGYTEKQRRDFLGEASIMGQFDHPNIIRLEGVVTKSKPVMIVTEYMENGSLDSFLRKHDAQFTVIQLVGMLRGIASGMKYLSDMGYVHRDLAARNILINSNLVCKVSDFGLSRVLEDDPEAAYTTRGGKIPIRWTSPEAIAYRKFTSASDVWSYGIVLWEVMSYGERPYWEMSNQDVIKAVDEGYRLPPPMDCPAALYQLMLDCWQKDRNNRPKFEQIVSILDKLIRNPGSLKIITSAAARPSNLLLDQSNVDITTFRTTGDWLNGVWTAHCKEIFTGVEYSSCDTIAKIS”, which “soluble on expression in E. coli” value is on record?
Answer: Its value is “soluble”.

Question: For “MLRSTVIVTAHRRKAFIKDAIESVMENSLKPTEIIVVKNFKDYQIDSFLETYHVKNIYTDDETLGGKISLGIYQSSGDILFFLDDDDLFSKDKIREVIYKFSKYDIGFYHNAQEVIHNKLTGSNLSTDNQRFMYYTSIDTRRLKELLYKFKAGFNGSSIVISRDLAMRCVDLLKNVNISVDTFLLFCAVENNLPIMIDFRKLTYYRIIMSQNSNTEVNDKLFKMLYEDALYFKQIFSSKALRDFIEMSIIQHDFLYKIISKKEISKRDALISMVKMLRYSLKYPNKWNFFLQGLSLLSVFSAEKSRSLYLKKVRSNSMLSILEHHHHHH”, which “soluble on expression in E. coli” value is on record?
Answer: Its value is “soluble”.

Question: For “MNGGGKNVLNKNSVGSVSEVGPDSTQEETPRDVRLLHLLLASQSIHQYEDQVPLQLMDFAHRYTQGVLKDALVYNDYAGSGNSAGSGLGVEDIRLAIAARTQYQFKPTAPKELMLQLAAERNKKALPQVMGTWGVRLPPEKYCLTAKEWDLEDPKSM”, which “soluble on expression in E. coli” value is on record?
Answer: The value was “not soluble”.

Question: Which “soluble on expression in E. coli” value does the source give for “MGKKRKITDEKDAQHVPAEKREKVENWLKKSTEKPTSSQSDAEKKKKRPWRNKVRKLAAKKAAADKKSENPEEPPLILEPKSSSDENTKKKRKRGPKKKKFKPEVAGKAAETENDDVAAAPEEADPIAEAKKRLDAGRFRFLNEKLYTCTGSEAFDFFKEDPTAFDLYHKGFADQVKKWPNHPLREIIRWLQSKPDQQSVFDLGCGEAKIAEAVGEKHKIRSFDLVAVNDRVESCDMSKLPAEDSSADIVIYCLSLMGTNLYDFIREARRVLKIGGILKIAEVTSRFVSIKQFCEAITKMGFEQSHRRELTDYFMMMEFKKVEKVEQKRPYGLKLKPCLYKKR” here?
Answer: The value was “soluble”.

Question: With “MNLKDLLAHRENLMDSAKRARSAITDDMDPADAAQAVENVKSIISEIESTDEAIAARRGVSDVTQKLKGLTITERGTENDSAASRSLGEHFVKAAGDRLKNQAAGAHIEYSVPEYQVKEDAHSSPKDLVEGWGTFYQR” as the sequence, how does the “soluble on expression in E. coli” value read?
Answer: Its value is “soluble”.

Question: For “MASPVIYQAEDAIIYNAILETVNAGYTGSCYVNYHNEVGGYIEWNVNAPSSGSYALIFRYANGTTANRPMRITVNGNIVKPSMDFVSTGAWTTWNEAGIVANLNQGNNVIRATAIASDGGPNVDYLKVFSANAFQPVSLEHHHHHH”, which “soluble on expression in E. coli” value is on record?
Answer: Its value is “soluble”.

Question: For “GMSSTSSKVVLHPTMLNCMRGLHKKAVLPEPVLDRGIELARAFVGGRRARGQRVERQPDVAAACLMIAAEEAQQPLPLAEVRCLDSSLGDVELRRADIVRELHLEDSERRLRDTFADNLLVKYILKLGLQVSLYLPHCKRLLTALGRVEALAGLTVADRVTTALLLARTAQTLSWEQGTHISKGKECDLGMEAIYANFSSKAHLEVTKVNKIMHLAVDVLPLIQAAFQDCGEPTAGKRKVDKNSEPEASGGTKRVKREET”, which “soluble on expression in E. coli” value is on record?
Answer: Its value is “soluble”.

Question: Which “soluble on expression in E. coli” value does the source give for “MGSDKIHHHHHHMQHDDQPLPQTAPHGRVISHLGETDTDDATLLASIKTRLRQHNDRSAAEMEHLLQLVDALWAMELGRFLLRNRGLNANWTHQLVTYQAGTLVQQTTPALEYELFEKTPAVLATRERFGIFRTQLQALLRPGMTLASLPCGWMADVLSLDYGQCPDVRLIGIDLDPQALDGALRLAQQYGLEGQLTLQREDAWAPGEPNSVDVLSSNGLNLYEPDDARVIALYRAFFDRLRPGGTLVASFLTPPPSLCAESPWKLDLIDGAALVLQSQVFIDVVQARWASFRTHAQTRTQLESAGFTDVRFIDDRASIFPTVIARKPMSD” here?
Answer: The value was “not soluble”.

Question: With “RHMELSPDGNLKTTITIGDRLTYDITCNGRQILTPSPISMTLDNGTVWGENAKLSGTSRKSVDEMIPSPFYRASELRNHYNGLTLRFKKDWNVEFRAYNDGIAYRFVNQGKKPFRVVTEVSDYCFPSDMTASVPYVKSGKDGDYNSQFFNSFENTYTTDKLSKLNKQRLMFLPLVVDAGDGVKVCITESDLENYPGLYLSASEGANRLSSMHAPYPKRTVQGGHNQLQMLVKEHEDYIAKVDKPRNFPWRIAVVTTTDKDLAATNLSYLLGAPSRMSDLSWIKPGKVAWDWWNDWNLDGVDFVTGVNNPTYKAYIDFASANGIEYVILDEGWAVNLQADLMQVVKEIDLKELVDYAASKNVGIILWAGYHAFERDMENVCRHYAEMGVKGFKVDFMDRDDQEMTAFNYRAAEMCAKYKLILDLHGTHKPAGLNRTYPNVLNFEGVNGLEQMKWSSPSVDQVKYDVMIPFIRQVSGPMDYTQGAMRNASKGNYYPCYSEPMSQGTRCRQLALYVVFESPFNMLCDTPSNYMREPESTAFIAEIPTVWDESIVLDGKMGEYIVTARRKGDVWYVGGITDWSARDIEVDCSFLGDKSYHATLFKDGVNAHRAGRDYKCESFPIKKDGKLKVHLAPGGGFALKIK” as the sequence, how does the “soluble on expression in E. coli” value read?
Answer: The value was “soluble”.

Question: Which “soluble on expression in E. coli” value does the source give for “MGSDKIHHHHHHEQEDKVSGEKTLAVVSASSDDRPSTRGIINDNTYALGVFRTTANTYAPLYNVKHIYSGGEWGADDVIKVDYRNASFFAYYPYHTATGNYAGLAGGTTLTLQAQLFNAGEDICYGAGEASGGGPVSVYNPFVEFLNMKHAYARLRLTLTRGEKFDKTKKCNIQNITFKSNNANFYLTRSLDIASTAGATGGSAVAAGYVHNPNVNIATGKSVTYEYMFPPQPLDGSKLTILVTVDGVTRSCDISTLGSSLDSGKYYGVSLTFTDVGIILSSAVVTVNNFGGQGNTQVDTEL” here?
Answer: The value was “not soluble”.

Question: For “MVLEATVLVIDNSEYSRNGDFPRTRFEAQIDSVEFIFQAKRNSNPENTVGLISGAGANPRVLSTFTAEFGKILAGLHDTQIEGKLHMATALQIAQLTLKHRQNKVQHQRIVAFVCSPISDSRDELIRLAKTLKKNNVAVDIINFGEIEQNTELLDEFIAAVNNPQEETSHLLTVTPGPRLLYENIASSPIILEEGSSGMGAFGGSGGDSDANGTFMDFGVDPSMDPELAMALRLSMEEEQQRQERLRQQQQQQDQPEQSEQPEQHQDK”, which “soluble on expression in E. coli” value is on record?
Answer: Its value is “soluble”.

Question: Which “soluble on expression in E. coli” value does the source give for “MSLRQDILLNNNWNFRFSHQVQGDTRRVDLPHTWNAQDALAGKIDYKRGIGNYEKALYIRPEWKGKRLFLRFDGVNSIADVFINRKHIGEHRGGYGAFIFEITDLVKYGEKNSVLVRANNGEQLDIMPLVGDFNFYGGIYRDVHLLITDETCISPLDYASPGVYLVQEVVSPQEAKVCAKVNLSNRAADGTAELQVLVTDGTKVICKESRNVSLKQGADILEQLPLLIQKPRLWNGCEDPFMYQVSISLHKDGKQIDSVTQPLGLRYYHTDPDKGFFLNGKHLPLHGVCRHQDRAEVGNALRPQHHEEDVALMREMGVNAIRLAHYPQATYMYDLMDKHGIVTWAEIPFVGPGGYADKGFVDQASFRENGKQQLIELIRQHYNHPSICFWGLFNELKEVGDNPVEYVKELNALAKQEDPTRPTTSASNQDGNLNFITENIAWNRYDGWYGSTPKTLATFLDRTHKKHPELRIGISEYGAGASIYHQQDSLKQPSASGWWHPENWQTYYHMENWKIIAERPFVWGTFVWNMFDFGAAHRTEGDRPGINDKGLVTFDRKVRKDAFYFYKANWNKQEPMIYLAEKRCRLRYQPEQTFMAFTTAPEAELFVNGVSCGKQKADTYSTVVWKNVKLTSGENIIRVTTPGKKPLTDEVTVEYKEDREGHHHHHH” here?
Answer: Its value is “soluble”.

Question: With “SFPGDYDNYLLEKEEMLRVEEMQNAEFDKKLAQEEVWIRQGIKARRTRNEGRVRALKKLREERRDRREVQGKVNLNIDDASRSGKIVF” as the sequence, how does the “soluble on expression in E. coli” value read?
Answer: The value was “not soluble”.

Question: For “MGHHHHHHSHMKQWKEKKKKKKPIQEPEVPQIDVPNLKPIFGIPLADAVERTMMYDGIRLPAVFRECIDYVEKYGMKCEGIYRVSGIKSKVDELKAAYDREESTNLEDYEPNTVASLLKQYLRDLPENLLTKELMPRFEEACGRTTETEKVQEFQRLLKELPECNYLLISWLIVHMDHVIAKELETKMNIQNISIVLSPTVQISNRVLYVFFTHVQELFGNVVLKQVMKPLRWSNMATMPTLPETQAGIKEE”, which “soluble on expression in E. coli” value is on record?
Answer: Its value is “soluble”.

Question: With “LVSGVICAAIGAVALLGTQAVLKSTNSTEFCVSCHSMTHPQAEWEGSVHFSNRKGIRAECADCHVPQDSWHYVKAKVAAVKDVWHTFVTNKIPDQEAYEKHRLEMAQHVWQDMKETDSATCRSCHSFDAMVLAEQREAAQKMHKIAQETNQTCIDCHKGIAHFMPEMPADNSAALGELAKHGGKFNSADKVLYSLAMTSAKLAQGSEIRLLPFAELHNWQEEGDKIVAVVKGWQQVGAEGVIYSGLGQRIMVGLVDDAAKDKLTVHQVVNDKVTNSDWKEVSTSVSLPKAALTADIKSLNDFGSNLNQTHCSGCHAPISANHYTA” as the sequence, how does the “soluble on expression in E. coli” value read?
Answer: The value was “not soluble”.
